Substitutions are numbered along the chain they refer to. Names may count otherwise.
T1: Recombinant UL141 ectodomain (soluble, released from the Fc fusion), Q6RJQ3
T1 chain: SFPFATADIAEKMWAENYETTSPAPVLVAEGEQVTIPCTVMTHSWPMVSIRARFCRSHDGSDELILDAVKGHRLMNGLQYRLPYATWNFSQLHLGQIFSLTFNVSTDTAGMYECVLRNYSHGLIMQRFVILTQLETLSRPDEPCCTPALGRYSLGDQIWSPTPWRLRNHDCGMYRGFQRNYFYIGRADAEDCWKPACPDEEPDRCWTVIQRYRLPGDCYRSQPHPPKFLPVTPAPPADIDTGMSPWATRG

B1: Human TRAIL-R2-Fc fusion protein (wild type), O14763 M152A; R154A; K155A (protein)
chain: QQDLAPQQRAAPQQKRSSPSEGLCPPGHHISEDGRDCISCKYGQDYSTHWNDLLFCLRCTRCDSGEVELSPCTTTRNTVCQCEEGTFREEDSPEACAACRTGCPRGMVKVGDCTPWSDIECVHKESG
B2: Human TRAIL-R2-Fc fusion protein (wild type), O14763 R154A (protein)
chain: B1 chain with A95M, A98K
B3: Human TRAIL-R2-Fc fusion protein (wild type), O14763 P150A (protein)
chain: B1 chain with P93A, A95M, A97R, A98K
B4: Human TRAIL-R2-Fc fusion protein (wild type), O14763 M152A (protein)
chain: B1 chain with A97R, A98K
B5: Human TRAIL-R2-Fc fusion protein (wild type), O14763 K155A (protein)
chain: B1 chain with A95M, A97R

Biological target: T1, Recombinant UL141 ectodomain (soluble, …)
Test: SPR
Conditions: chain shown with the change

Binder	Kd [nM]
B1	7
B2	6
B3	8
B4	7
B5	8
